Substitutions are numbered along the chain they refer to.

Our source for the Kd values is article PMC8809517, “Cofactor-independent RNA editing by a synthetic S-type PPR protein”.

What all share (test): high-throughput RNA pulldown from lysate on Ni-NTA beads; HRP: 50 mM Tris pH 8, 150 mM NaCl, 1 mM beta-mercaptoethanol, 50 ug/ml BSA, 3 ug/ml yeast RNA, 0.5% heparin; ITC and FP: Tris pH 8, 200 mM KCl, 5% glycerol; MST: 50 mM Tris pH 8, 200 mM NaCl, 1 mM DTT, BSA, heparin, 0.05% Tween 20
Settings in all cases: tags: N-terminal His-eGFP

Data set [1] addresses T1, GFP-9S library array, motif 4 ND N98L;D124H (synthetic construct, N98L;D124H).
T1 chain: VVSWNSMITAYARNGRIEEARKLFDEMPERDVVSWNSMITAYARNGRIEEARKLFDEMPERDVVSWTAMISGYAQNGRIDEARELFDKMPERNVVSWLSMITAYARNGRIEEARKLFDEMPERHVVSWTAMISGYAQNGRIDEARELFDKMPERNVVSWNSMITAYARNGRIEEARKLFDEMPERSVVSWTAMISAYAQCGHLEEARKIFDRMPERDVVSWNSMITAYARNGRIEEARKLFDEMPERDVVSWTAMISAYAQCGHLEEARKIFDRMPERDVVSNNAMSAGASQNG

Data set [2] deals with T2, GFP-9S library array, motif 4 ND N98K;D124R (synthetic construct, N98K;D124R).
T2 chain: T1 chain with L98K, H124R

Data set [3] has as its target T3, GFP-9S library array, motif 4 ND N98I;D124E (synthetic construct, N98I;D124E).
T3 chain: T1 chain with L98I, H124E

Data set [4] deals with T4, GFP-9S library array, motif 4 ND N98C;D124R (synthetic construct, N98C;D124R).
T4 chain: T1 chain with L98C, H124R

The target of data set [5] is T5, GFP-9S library array, motif 4 ND N98L;D124C (synthetic construct, N98L;D124C).
T5 chain: T1 chain with H124C

The Kd is the concentration at which binding is half-saturated. Read a high Kd as a looser complex. Regarding AUUAAACGUGA (ssRNA) [IR-rpoA-A], the Kd was determined as 399 nM in data set [1] (label: 5' IRDye 800CW); 139 nM in data set [2] (label: 5' IRDye 800CW); 48.6 nM in data set [3] (label: 5' IRDye 800CW); 44.5 nM in data set [4] (label: 5' IRDye 800CW); 98.7 nM in data set [5] (label: 5' IRDye 800CW).

In the case of AUUAGACGUGA (ssRNA) [Cy5-rpoA-G], the Kd in data set [1] (label: 5' Cy5) is 196 nM; in data set [2] (label: 5' Cy5), 55.5 nM; in data set [3] (label: 5' Cy5) it was 78.6 nM; in data set [4] (label: 5' Cy5) it was 54.9 nM; in data set [5] (label: 5' Cy5), 70.4 nM.

AUUACACGUGA (ssRNA) [Cy5-rpoA]: the Kd turned out to be 179 nM in data set [1] (label: 5' Cy5); 42.9 nM in data set [2] (label: 5' Cy5); 97.2 nM in data set [3] (label: 5' Cy5); 160 nM in data set [4] (label: 5' Cy5); 89 nM in data set [5] (label: 5' Cy5).

Consider AUUAUACGUGA (ssRNA) [IR-rpoA-U], for which the Kd in data set [1] (label: 5' IRDye 800CW) was found to be 125 nM; in data set [2] (label: 5' IRDye 800CW), 66.9 nM; in data set [3] (label: 5' IRDye 800CW) it was 43.1 nM; in data set [4] (label: 5' IRDye 800CW), 96.8 nM; in data set [5] (label: 5' IRDye 800CW), 60.2 nM.
